This is an account of results in article PMC9935901, “B-lymphoid tyrosine kinase-mediated FAM83A phosphorylation elevates pancreatic tumorigenesis through interacting with β-catenin” (Signal Transduction and Targeted Therapy, 2023).

Entries after “also recorded” stand apart in the source; their conditions may differ.

In one assay the test system is FAM83A expression. The assay is described as follows: FAM83A expression after Wnt3a treatment in PANC-1 cells. The assay is classed as cell-based, human. The source says:
Fig. 7 FAM83A is a direct downstream target of Wnt/β-catenin signaling and forms positive feedback in pancreatic cancer cells. a–d Representative western blotting images of the protein and mRNA levels of FAM83A after Wnt3a treatment for indicated concentrations and times in PANC-1 cells (n = 3). e, f The protein and mRNA levels of FAM83A after β-catenin knockdown in PANC-1 cells. Cell lysates were used for western blotting with the indicated antibodies (n = 3). g FAM83A gene promoter-reporter luciferase activity in HEK293T cells with or without β-catenin overexpression (left) and PANC-1 cells with or without β-catenin knockdown (right) (n = 6). h The schematic diagram of FAM83A gene promoter truncation and deletion generation. i PACN-1 cells were subjected to chromatin immunoprecipitation using antibodies against TCF4 and IgG, and the fold change of TCF/IgG was quantified (n = 3). j Predicted TCF4/LEF-binding sequence in the FAM83A gene promoter from the JASPAR website. k Schematic diagram of the generated luciferase report plasmids and the relative luciferase activity after transfection with the plasmids in HEK293T cells with or without Wnt3a treatment (n = 6). l A ChIP experiment was used to detect binding between the β-catenin-TCF4 complex and the predicted TCF/LEF-binding element in the FAM83A promoter (TBE1 and TBE2). […]

A further assay relates to FAM83A localization. The assay is described as follows: FAM83A nuclear translocation upon Wnt3a treatment. The assay is classed as cell-based. Particulars: confocal microscopy, nucleo-plasmic separation; Wnt3a 100 ng/mL; HEK293T, PANC-1. On the procedure: Protein interactions were analyzed by western blotting (n = 3). Scale bars: 10 µm. *P < 0.05; **P < 0.01; ***P < 0.001. Data were presented as mean ± SD
Protein interactions were analyzed by western blotting (n = 3). c The level of β-catenin ubiquitination with or without Flag-tagged FAM83A overexpression or BLK kinase knockdown after MG132 treatment in HEK293T cells. Cell lysates were used for IP and western blotting with the indicated antibodies (n = 3). d The level of β-catenin ubiquitination with or without Flag-tagged FAM83A, Y138A, or Y138D mutants overexpression after MG132 treatment in HEK293T cells. […] Cell lysates were used for IP and western blotting with the indicated antibodies (n = 3). f The localization of Flag-tagged FAM83A and its Y138A, Y138D mutants in HEK293T cells were analyzed with confocal microscopy. g The protein level of cytoplasmic and nuclear β-catenin in HEK293T cells with or without Flag-tagged FAM83A, Y138A, or Y138D mutants transfection and Wnt3a treatment. […]

Assay [1] concerns β-catenin destruction complex. Description: Co-IP, β-catenin with AXIN1 and GSK3β in PANC-1 cells. The assay is classed as cell-based, human. Particulars: peptide treatment or GFP-fusion transfection, n = 3.
A further assay deals with β-catenin stability. Description: β-catenin protein stability upon CHX treatment in PANC-1 cells. Particulars: peptide treatment or GFP-fusion transfection, n = 3. The assay is classed as cell-based, human. On the procedure:
Fig. 8 Peptides disrupting FAM83A-β-catenin interaction inhibit Wnt/β-catenin signaling. a Identification of β-catenin binding α-helical peptide(s) in FAM83A DUF1669 (140aa–210aa) region. The secondary structure of the FAM83A DUF1669 (140aa–210aa) region was analyzed based on the PDB data (4urj). b The FaPC, FaP1, FaP2, and FaP3 fragments were constructed into pEGFP-C1 expression vector connection with a flexible linker ((GGGGS)n). The interactions between β-catenin and the four fragments were evaluated with Co-IP assays in HEK293T cells (n = 3). c, d The predicted docking model of FaP2, FaP3 with β-catenin 530–666 aa region. e, f Kinetic interactions of cell-penetrating peptide TAT-linked peptides with β-catenin was determined by surface plasmon resonance analyses. g Effect of CP-FaP2 and CP-FaP3 on β-catenin-FAM83A and β-catenin-TCF4 interactions in PANC-1 cells. Cells were treated with control (CP-FaPC), CP-FaP2, and CP-FaP3 (5 μM) for 24 hours. Cell lysates were used for IP and western blotting with the indicated antibodies (n = 3). h The schematic diagram of 7TGC plasmid construction and the fluorescence images of PANC-1 cells with control, CP-FaP2, and CP-FaP3 treatment. […]

In assay [2] the test system is β-catenin ubiquitination (HEK293T cells). The assay is described as follows: β-catenin ubiquitination in HEK293T cells. The assay is classed as cell-based. Particulars: GFP-fusion transfection, n = 3.

B1: Wnt3a: Wnt agonist, Abcam ab153563 (protein, UniProt P56704 19-352, looked up)
Protein Wnt-3a: SYPIWWSLAVGPQYSSLGSQPILCASIPGLVPKQLRFCRNYVEIMPSVAEGIKIGIQECQHQFRGRRWNCTTVHDSLAIFGPVLDKATRESAFVHAIASAGVAFAVTRSCAEGTAAICGCSSRHQGSPGKGWKWGGCSEDIEFGGMVSREFADARENRPDARSAMNRHNNEAGRQAIASHMHLKCKCHGLSGSCEVKTCWWSQPDFRAIGDFLKDKYDSASEMVVEKHRESRGWVETLRPRYTYFKVPTERDLVYYEASPNFCEPNPETGSFGTRDRTCNVSSHGIDGCDLLCCGRGHNARAERRREKCRCVFHWCCYVSCQECTRVYDVHTCK
On to B1, for which the “FAM83A mRNA level” value in the assay on FAM83A expression was “elevated both the protein and mRNA levels of FAM83A in dose- and time-dependent manners”. In addition, the FAM83A protein level entry with FAM83A expression (n = 3) was “elevated both the protein and mRNA levels of FAM83A in dose- and time-dependent manners”. In addition, the FAM83A nuclear translocation result with FAM83A localization is given as “FAM83A shifted from the cell cytoplasm to nucleus upon Wnt3a treatment; also recorded: increased the nuclear translocation of FAM83A”.

B2: GFP-FaP2: FaP2 fused with GFP via a flexible linker ((GGGGS)n), pEGFP-C1 expression vector, transfected (protein)
chain: ASAEKPYLKEKSSATVYFQTVKHNNIRDLVRRCITRTSQVLVILMDVFTDVEIFCDILEAANKRGVFVCVLLDQGGVKLFQEMCDKVQISDSHLKNISIRSVEGEIYCAKSGRKFAGQIREKFIISDWRFVLSGSYSFTWLCGHVHRNILSKFTGQAVELFDEEFRHLYASSKPVMGLKSPRL
modifications: left off: EGFP (from the vector pEGFP-C1), end not stated, kept
notes: FaP2 fused with GFP via a flexible linker ((GGGGS)n), pEGFP-C1 expression vector, transfected
Regarding B2, in assay [1], the “assembly of β-catenin destruction complex” value is listed as “improved”. Besides, in the assay on β-catenin stability, the “stability of β-catenin” value is listed as “decreased”. Also, the β-catenin ubiquitination entry in assay [2] is “improved”.

B3: GFP-FaP3: FaP3 fused with GFP via a flexible linker ((GGGGS)n), pEGFP-C1 expression vector, transfected (protein)
chain: ASAEKPYLKEKSSATVYFQTVKHNNIRDLVRRCITRTSQVLVILMDVFTDVEIFCDILEAANKRGVFVCVLLDQGGVKLFQEMCDKVQISDSHLKNISIRSVEGEIYCAKSGRKFAGQIREKFIISDWRFVLSGSYSFTWLCGHVHRNILSKFTGQAVELFDEEFRHLYASSKPVMGLKSPRL
modifications: left off: EGFP (from the vector pEGFP-C1), end not stated, kept
notes: FaP3 fused with GFP via a flexible linker ((GGGGS)n), pEGFP-C1 expression vector, transfected
Consider B3, for which, in assay [1], the “assembly of β-catenin destruction complex” value is reported as “improved”. The “stability of β-catenin” value in the assay with β-catenin stability is “decreased”. For the same molecule, the β-catenin ubiquitination entry in assay [2] was “improved”.
